± gives the uncertainty stated by the source.
Experiment: amyloid nucleation score (Sup35N fusion, yeast selection) (log enrichment); library NNK3; higher = more nucleation; inactive = no reads after selection
Outline: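 The nucleation score is the log enrichment of output over input reads, calculated with DiMSum and centred on the mode score of non-aggregating sequences. Sequences with under 100 input reads were excluded. Reads came from Illumina sequencing of plasmid inserts from psi-negative yeast expressing Sup35N fused to peptides of 20 random codons, induced 24 hours with 100 μM copper sulfate and grown 7 days at 30°C without adenine and uracil.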

Substance | amyloid nucleation score
HYADSVESRSALLWLVSFLF | inactive
HYFGKT | inactive
HYKVPWF | inactive
HYMRMQTSLANRYIARNVAR | inactive
IALSTDSMPRYLEALRACGC | inactive
IANCRIS | 1.34 ± 0.094
IAQIFLACRTVT | inactive
IARATFFINQR | 1.43 ± 0.15
IARFGVKSVGWSFAENMSST | inactive
IATIFGVHFRQNDDWIVALY | inactive
IAWRQAGDFITLNLSIWMRL | inactive
ICEPADQV | inactive
ICFFRGAARMNCLGYQGITR | inactive
ICFGDKVRIKFFVPSIFSWY | inactive
ICFVSCKLFFVDSLCFCFAG | inactive
ICILADEYLMCGYGYFHFDY | inactive
ICLVEISDGAFRKR | inactive
ICMSMNMSADPGMPAIMFNY | inactive
ICRLVLIWVPRSSGGVSSSR | inactive
ICSFFGNSPVRLQVYFLWSW | inactive
ICSFRTWA | 0.978 ± 0.1

Substance | amyloid nucleation score
ICSMYTTVSRNTEL | inactive
ICTVNMTNQSEC | inactive
ICYRWY | 0.192 ± 0.19
IDALIYG | inactive
IDARRFQGFNISSYMN | 0.372 ± 0.28
IDCGGFDDIRVVSGDDEKMW | inactive
IDDEIANSSFQVWLKGGFLV | inactive
IDHKCCNNTVS | inactive
IDILNG | 0.152 ± 0.71
IDLKY | inactive
IDMILC | inactive
IDQCNIVGTRKNGHAL | inactive
IDTAFRSYCYDFDLANDLMG | inactive
IDTVNFKVLHVGI | inactive
IDYRMYYY | inactive
IEFGGNN | 1.68 ± 0.13
IEFGVCKVRNVVNDVRFRRG | inactive
IEFRLWYG | inactive
IELLCGLDIT | inactive
IEQRLRLKSLSYFFINDVKI | inactive
IEREMCTGNLVPLNAWKRFH | inactive

Substance | amyloid nucleation score
IESKAWISVAGARFYSLGVG | inactive
IEWVRNTLSISLIERYRLNG | inactive
IFCST | inactive
IFGWLVDYLSFRVYKEDKGV | inactive
IFHGSLYGFHYEPCLQAWAA | inactive
IFIQLSDLMQSKVAHECGWC | inactive
IFLDNFFKSFFGRRGSKS | 0.662 ± 0.13
IFLGYRNYDYFSFTVLVE | inactive
IFLYNVLIGLCLDNPYKLFG | inactive
IFQRKRRTYLS | inactive
IFSLYMGASCMWLMIVGWLD | inactive
IFSVFLLTMLEQRQKAHSLM | inactive
IFTDLVA | inactive
IFTTNCYISNFYNGWWDV | 2.91 ± 0.078
IFYVWQLLYYGEQRGGS | 1.63 ± 0.088
IGGRKALAALSVYHNVMRCL | inactive
IGITLFENHKFGLGLANVPG | inactive
IGMKFCAYVLLSYKAITMFG | inactive
IGNCFMTMGRLVSRQDSVPM | -0.427 ± 1
IGRLMA | inactive
IGSFVKDKLSRRIGTGRMEI | inactive

Substance | amyloid nucleation score
IGYLDFVHSIENVVYNWGAS | inactive
IGYTRLLFLMDVTVGIRVGW | inactive
IHFMCMWVSNWYVLLVLKE | inactive
IHGHC | inactive
IHRMMAYDFCRNLYFSEQWG | inactive
IIADKVQSLISFDNVGMCQW | inactive
IIAGGTYECQIQIVYF | 1.22 ± 0.14
IIAPSGVGWYWR | inactive
IICLK | inactive
IICYSWRRFLC | inactive
IIEDLLLHWLGVWVFSKKFA | inactive
IIFFNSDMNLGTDV | inactive
IIFIF | 1.3 ± 0.14
IIGSCGGFVSLACSGTLDGV | 0.538 ± 0.2
IIGSFC | inactive
IINATVCHCM | 3.33 ± 0.077
IINIRVIVSSLFPFLSSEFS | inactive
IIRISEFDSCGQTAW | inactive
